Reference: patent publication US20130295106A1 (ONCOMED PHARMACEUTICALS, published 2013)

What was measured:
Assay in all cases: flow cytometry, HEK293 cells transiently co-transfected with FZD expression vector and GFP
[1] = biological target: T1, human FZD10 expressed on transfected HEK293 cells (human, UniProt Q9ULW2 21-581)
T1 sequence: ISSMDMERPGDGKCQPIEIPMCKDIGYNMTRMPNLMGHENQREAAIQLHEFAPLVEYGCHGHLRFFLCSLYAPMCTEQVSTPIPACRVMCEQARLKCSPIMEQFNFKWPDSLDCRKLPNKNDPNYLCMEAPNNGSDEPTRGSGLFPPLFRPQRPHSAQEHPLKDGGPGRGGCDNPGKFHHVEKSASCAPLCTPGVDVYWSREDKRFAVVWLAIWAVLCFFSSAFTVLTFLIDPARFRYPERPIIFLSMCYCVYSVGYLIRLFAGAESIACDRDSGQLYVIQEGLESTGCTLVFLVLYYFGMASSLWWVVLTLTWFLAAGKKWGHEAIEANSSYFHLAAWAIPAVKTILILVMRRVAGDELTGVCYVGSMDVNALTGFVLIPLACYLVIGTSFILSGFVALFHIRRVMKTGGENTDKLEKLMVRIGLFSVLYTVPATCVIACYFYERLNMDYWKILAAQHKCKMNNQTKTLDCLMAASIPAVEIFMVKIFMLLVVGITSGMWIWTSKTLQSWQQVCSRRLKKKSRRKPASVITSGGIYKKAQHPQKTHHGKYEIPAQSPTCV
Procedure: (§1) To measure antibody binding to FZD by flow cytometry HEK293 cells were co-transfected with FZD expression vectors and the transfection marker GFP. Twenty-four to forty-eight hours post-transfection, cells were collected in suspension and incubated on ice with anti-FZD antibodies (10 μg/ml unless otherwise indicated) or control IgG to detect background antibody binding. The cells were washed and primary antibodies detected with Fc domain-specific secondary antibodies conjugated to a fluorescent chromophore (e.g. phycoerythrin conjugated anti-human IgG). Labeled cells were then analyzed by flow cytometry to identify anti-FZD antibodies that specifically recognize cell surface expression of FZD protein. Monoclonal antibodies 18R5 and 18R8 recognized FZD on transfected cells. As shown in FIG. 1 and FIG. 2, both 18R8 and 18R5 bind to multiple FZD including FZD1, FZD2, FZD5, FZD7, and FZD8. To examine the relative ability of 18R8 and 18R5 to bind to each FZD protein, titration analysis was conducted wherein the amount of antibody in the binding reaction was varied (FIG. 2).

[2] = biological target: T2, human FZD3 expressed on transfected HEK293 cells (human, UniProt Q9NPG1 23-666)
T2 sequence: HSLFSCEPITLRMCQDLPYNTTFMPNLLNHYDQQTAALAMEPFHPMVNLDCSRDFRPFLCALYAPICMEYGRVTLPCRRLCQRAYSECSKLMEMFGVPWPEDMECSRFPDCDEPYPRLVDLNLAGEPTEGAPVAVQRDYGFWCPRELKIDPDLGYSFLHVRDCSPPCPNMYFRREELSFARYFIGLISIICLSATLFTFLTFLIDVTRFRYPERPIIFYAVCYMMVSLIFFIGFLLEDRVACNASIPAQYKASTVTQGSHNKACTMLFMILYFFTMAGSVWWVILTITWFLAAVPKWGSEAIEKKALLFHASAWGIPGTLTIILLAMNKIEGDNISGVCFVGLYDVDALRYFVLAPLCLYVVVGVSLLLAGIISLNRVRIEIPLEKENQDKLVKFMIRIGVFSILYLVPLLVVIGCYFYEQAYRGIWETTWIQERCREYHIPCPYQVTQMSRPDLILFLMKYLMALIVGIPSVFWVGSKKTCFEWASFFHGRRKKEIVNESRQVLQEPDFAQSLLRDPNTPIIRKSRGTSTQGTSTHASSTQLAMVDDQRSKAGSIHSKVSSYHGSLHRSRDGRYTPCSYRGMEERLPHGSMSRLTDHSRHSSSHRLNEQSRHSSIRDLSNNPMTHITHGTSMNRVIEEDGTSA
Procedure: as §1

[3] = biological target: T3, human FZD6 expressed on transfected HEK293 cells (human, UniProt O60353 19-706)
T3 sequence: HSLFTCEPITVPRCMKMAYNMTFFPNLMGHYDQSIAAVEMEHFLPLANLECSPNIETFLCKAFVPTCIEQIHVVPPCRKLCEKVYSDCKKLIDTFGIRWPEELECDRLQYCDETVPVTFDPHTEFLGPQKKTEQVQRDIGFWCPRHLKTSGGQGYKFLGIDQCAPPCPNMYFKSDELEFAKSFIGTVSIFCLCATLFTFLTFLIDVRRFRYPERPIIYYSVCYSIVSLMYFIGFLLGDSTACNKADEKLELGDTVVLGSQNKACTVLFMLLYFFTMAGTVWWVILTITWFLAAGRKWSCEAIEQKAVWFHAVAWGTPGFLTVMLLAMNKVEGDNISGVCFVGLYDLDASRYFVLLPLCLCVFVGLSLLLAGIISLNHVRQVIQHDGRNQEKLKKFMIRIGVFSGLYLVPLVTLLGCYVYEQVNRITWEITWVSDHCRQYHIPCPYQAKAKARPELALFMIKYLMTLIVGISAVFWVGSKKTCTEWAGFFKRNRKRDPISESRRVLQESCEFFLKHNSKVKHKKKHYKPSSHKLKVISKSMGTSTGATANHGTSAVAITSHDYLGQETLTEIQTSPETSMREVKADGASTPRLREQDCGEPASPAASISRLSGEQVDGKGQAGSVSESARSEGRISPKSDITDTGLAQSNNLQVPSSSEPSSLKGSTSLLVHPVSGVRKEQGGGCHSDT
Procedure: as §1

- binding result [1]: no binding (tested: 10 ug/ml)
- binding result [2]: no binding (tested: 10 ug/ml)
- binding result [3]: no binding (tested: 10 ug/ml)
B1: 18R8 IgG antibody (human IgG2, lambda) (antibody, V domains shown)
VH: EVQLVESGGGLVQPGGSLRLSCAASGFTFSHYTLSWVRQAPGKGLEWVSVISGDGSYTYYADSVKGRFTISSDNSKNTLYLQMNSLRAEDTAVYYCARNFIKYVFANWGQGTLVTVSS
VL: DIELTQPPSVSVAPGQTARISCSGDKLGKKYASWYQQKPGQAPVLVIYEKDNRPSGIPERFSGSNSGNTATLTISGTQAEDEADYYCSSFAGNSLEVFGGGTKLTVLG
notes: Expressed in CHO cells, protein A purified; also called 18R8 IgG2 antibody; anti-FZD antibody 18R8
